Results on six molecules are retold here after patent US20240052061A1 (published 2024).

Assay [1] addresses T1, human ecto-nucleoside triphosphate diphosphohydrolase-3 (NTPDase3) (human, UniProt O75355 1-529).
T1 chain: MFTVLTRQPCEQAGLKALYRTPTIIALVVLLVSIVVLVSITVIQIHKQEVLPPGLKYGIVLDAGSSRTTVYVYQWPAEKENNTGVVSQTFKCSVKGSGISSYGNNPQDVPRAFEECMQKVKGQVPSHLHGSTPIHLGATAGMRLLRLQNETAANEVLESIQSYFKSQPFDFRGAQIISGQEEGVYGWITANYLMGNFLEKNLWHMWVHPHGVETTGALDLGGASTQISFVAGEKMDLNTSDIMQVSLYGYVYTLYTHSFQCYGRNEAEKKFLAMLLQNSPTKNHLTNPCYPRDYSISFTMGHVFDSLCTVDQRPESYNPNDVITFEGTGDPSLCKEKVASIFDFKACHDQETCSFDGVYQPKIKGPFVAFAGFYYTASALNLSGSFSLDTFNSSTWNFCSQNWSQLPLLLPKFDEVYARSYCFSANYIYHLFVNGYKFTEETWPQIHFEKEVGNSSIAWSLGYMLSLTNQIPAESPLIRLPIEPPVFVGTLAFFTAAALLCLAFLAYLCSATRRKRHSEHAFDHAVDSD
Put plainly: flow cytometry; CHO-hENTPD3 cells.

For assay [2], the target named is T1, human ecto-nucleoside triphosphate …. Put plainly: flow cytometry; HEK293T-hENTPD3 cells.
Assay [3] shares this target. Nature of the assay: flow cytometry; CHO-hENTPD3 cells, 2h at 37°C.
The target is the same in assay [4]. Nature of the assay: flow cytometry; COS7-hENTPD3 cells.
The target is the same in assay [5]. Put plainly: flow cytometry; COS7-hENTPD3 cells.
For assay [6] the target is unchanged. Put plainly: flow cytometry; HEK293T-hENTPD3 cells.
Assay [7] shares this target. Nature of the assay: flow cytometry; CHO-hENTPD3 cells.
For assay [8] the target is unchanged. Put plainly: flow cytometry; CHO-hENTPD3 cells, 20 min at 4°C.
For assay [9] the target is unchanged. Put plainly: flow cytometry; COS7-hENTPD3 cells.
Assay [10] shares this target. Put plainly: flow cytometry; CHO-hENTPD3 cells.
Assay [11] shares this target. Nature of the assay: flow cytometry; COS7-hENTPD3 cells.
For assay [12] the target is unchanged. Nature of the assay: flow cytometry; CHO-hENTPD3 cells.
For assay [13] the target is unchanged. Nature of the assay: flow cytometry; RT4 cells.
For assay [14] the target is unchanged. Put plainly: flow cytometry; HEK293T-hENTPD3 cells.
The target in assay [15] is r3E9. Put plainly: flow cytometry; RT4 cells; rabbit mAb.
The target of assay [16] is T1, human ecto-nucleoside triphosphate …. Nature of the assay: flow cytometry; CHO-hENTPD3 cells.

B1: 38D5 Hu/Ra (antibody, V domains shown)
VH: QELVESGGGLVQPGGSLKLSCKASGIDFNNYGISWVRQAPGKGLEWIAYKYPGFGIRNYANSVKGRFTISSDNAQNTVFLQMTSLAASDTATYFCARGARYRHDDYGALNLWGPGTLVTVSS
VL: DIVMTQTPPSVSAAVGGTVTINCQASQSVTNLLAWYQQKPGQPPKLLIYGASNLESGVPSRFRGSGSGTEFTLTISGMKAEDAATYYCQSGYYSANTFGAGTKVGIKR
Consider B1, for which the Kd in assay [1] was 26.6 nM; in assay [2] it was 6.56 nM; in assay [3], 2.54 nM; in assay [4], 0.96 nM; in assay [5] it was 1.93 nM; in [6] it was 2.22 nM. The Kd turned out to be 1.11 nM in assay [7] and 22.3 nM in assay [8].

B2: 38D5 hIgG1 (antibody, V domains shown)
VH: EQQLLESGGGLVQPGGSLRLSCAASGIDFNNYGISWVRQAPGKGLEWIAYKYPGFGIRNYANSVKGRFTISSDNSKNTVYLQMNSLRAEDTAVYFCARGARYRHDDYGALNLWGPGTLVTVSS
VL: DIQMTQSPSTLSASVGDRVTITCQASQSVTNLLAWYQQKPGKPPKLLIYGASNLESGVPSRFSGSGSGTEFTLTISSLQPDDFATYYCQSGYYSANTFGPGTKVDIK
For B2, the Kd in assay [2] worked out at 4.34 nM; in assay [9], 0.52 nM; in assay [10], 0.89 nM; in [4], 0.56 nM; in assay [7], 0.56 nM.

B3: humanized 38D5 hIgG1 variant LC.1 (P43A) (antibody, V domains shown)
VH: EQQLLESGGGLVQPGGSLRLSCAASGIDFNNYGISWVRQAPGKGLEWIAYKYPGFGIRNYANSVKGRFTISSDNSKNTVYLQMNSLRAEDTAVYFCARGARYRHDDYGALNLWGPGTLVTVSS
VL: DIQMTQSPSTLSASVGDRVTITCQASQSVTNLLAWYQQKPGKAPKLLIYGASNLESGVPSRFSGSGSGTEFTLTISSLQPDDFATYYCQSGYYSANTFGPGTKVDIK
Turning to B3, the dissociation constant (Kd) is 0.85 nM in [9] and 1.5 nM in assay [10].

B4: 8E1 Hu/Ra (antibody, V domains shown)
VH: QSVEESGGRLVTPGTPLTLTCTVSGFSLSSYAMGWVRQAPGKGLEFIGIISYSGNTYYASWAKGRFPISKTSSTTVDLKMTSPTTEDTANYFCARARYGGYSTNSYYLNIWGPGTLVTVSS
VL: DVVMTQTPASVEAAVGGTVTINCQASENIYRVLAWYQQKPGQRPKLLIYGASNLESGVPSRFKGSGSGTDYTLTISDLECDDAATYYCQGVVYNSDDSAFGGGTEVVVKG
In the case of B4, the Kd in assay [1] came to 1.59 nM; in [11], 0.31 nM; in [12], 0.43 nM; in assay [3], 1.02 nM; in [5], 0.54 nM; in assay [6], 0.33 nM. The Kd was determined as 0.06 nM in assay [13], 1.82 nM in [8] and 2.76 nM in assay [14].

B5: hENTPD3 (RT4 cells) (enzyme)
chain: MFTVLTRQPCEQAGLKALYRTPTIIALVVLLVSIVVLVSITVIQIHKQEVLPPGLKYGIVLDAGSSRTTVYVYQWPAEKENNTGVVSQTFKCSVKGSGISSYGNNPQDVPRAFEECMQKVKGQVPSHLHGSTPIHLGATAGMRLLRLQNETAANEVLESIQSYFKSQPFDFRGAQIISGQEEGVYGWITANYLMGNFLEKNLWHMWVHPHGVETTGALDLGGASTQISFVAGEKMDLNTSDIMQVSLYGYVYTLYTHSFQCYGRNEAEKKFLAMLLQNSPTKNHLTNPCYPRDYSISFTMGHVFDSLCTVDQRPESYNPNDVITFEGTGDPSLCKEKVASIFDFKACHDQETCSFDGVYQPKIKGPFVAFAGFYYTASALNLSGSFSLDTFNSSTWNFCSQNWSQLPLLLPKFDEVYARSYCFSANYIYHLFVNGYKFTEETWPQIHFEKEVGNSSIAWSLGYMLSLTNQIPAESPLIRLPIEPPVFVGTLAFFTAAALLCLAFLAYLCSATRRKRHSEHAFDHAVDSD
For the molecule B5, the dissociation constant (Kd) in assay [15] was found to be 0.22 nM.

B6: PBI #30 hIgG1 (antibody, V domains shown)
VH: QVQLQESGGGLIQPGGSLRLSCAASGFTSSSSDYAMSWVRQAPGKGLEWVSSISGSGGSTYYADSVKGRFTISRDNSKNTLYVQMTSLTAEDTAVYYCAKVVGYSMYDYYYHYALDVWGQGTTVTVSS
VL: QPVLTQPPSASGTPGQRVTISCSGSSSNIGSNTVNWYQQLPGTAPKLLIYSNNQRPSGVPDRFSGSKSGTSASLTISGLKTEDEAGYYCQSYDTSNVVFGGGTKVTVLG
Consider B6, for which the Kd in assay [16] was 1.64 nM; in assay [8], 20.9 nM.
